Laboratory results taken from the supplement of paper PMC7125110.
± gives the standard error. For some assays here: This sample holds only a part of the variants without activity.

B1: glmS ribozyme (parent)
chain: AUAAAAGCGCCAGAACUACAGAAAUGUAGUUGACGAGGAGGAGGUUUAUCGAAUUUUCGGCGGAUGCCUCCAAA

What was measured:
Settings in all cases: with glucosamine-6-phosphate
[1] = variants of: B1; test: kcat; higher = faster cleavage; RNA array
Procedure, shortened: (§1)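 On sequenced MiSeq chips, barcoded ribozyme variants were made in situ by E. coli RNA polymerase and followed at 37 °C through a hybridised Cy3 probe. Glucosamine-6-phosphate was flowed in at 40 μM to 10 mM in HEPES/KCl/Mg(OAc)2 buffer. Exponential fits to normalised per-tile medians gave kobs, and weighted Michaelis–Menten fits gave kcat and KM.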

[2] = variants of: B1; test: KM; higher = weaker cofactor use; RNA array
Procedure, shortened: as §1

[3] = variants of: B1; test: self-cleavage kobs at 640 uM GlcN6P; higher = faster cleavage; RNA array
Procedure, shortened: as §1

[4] = variants of: B1; test: self-cleavage kobs at 2500 uM GlcN6P; higher = faster cleavage; RNA array
Procedure, shortened: as §1

[5] = variants of: B1; test: self-cleavage kobs at 10000 uM GlcN6P; higher = faster cleavage; RNA array
Procedure, shortened: as §1

[6] = variants of: B1; test: self-cleavage kobs at 40 uM GlcN6P; higher = faster cleavage; RNA array
Procedure, shortened: as §1

[7] = variants of: B1; test: self-cleavage kobs at 160 uM GlcN6P; higher = faster cleavage; RNA array
Procedure, shortened: as §1

A42U A64G was tested, and the kcat [1] was 0.000148 ± 1.7e-05 s⁻¹, the KM [2] was 1930 ± 650 µM and the “self-cleavage kobs at 640 uM GlcN6P” value [3] was 3.08e-05 ± 7.7e-06 s⁻¹. The “self-cleavage kobs at 2500 uM GlcN6P” value [4] was 0.000102 ± 1.3e-05 s⁻¹ and the “self-cleavage kobs at 10000 uM GlcN6P” value [5] was 0.00012 ± 1.1e-05 s⁻¹.

G40C U56G was tested, and the kcat [1] was 0.00124 ± 0.00014 s⁻¹, the KM [2] was 1460 ± 280 µM and the “self-cleavage kobs at 40 uM GlcN6P” value [6] was 3.52e-05 ± 6.5e-06 s⁻¹. The “self-cleavage kobs at 160 uM GlcN6P” value [7] was 0.000146 ± 2.1e-05 s⁻¹, the “self-cleavage kobs at 640 uM GlcN6P” value [3] was 0.000333 ± 3.5e-05 s⁻¹ and the “self-cleavage kobs at 2500 uM GlcN6P” value [4] was 0.000869 ± 0.00011 s⁻¹. For the same variant, the “self-cleavage kobs at 10000 uM GlcN6P” value [5] was 0.00108 ± 9.7e-05 s⁻¹.

With A42U U45C the kcat [1] was 0.000116 ± 1e-05 s⁻¹, the KM [2] was 2890 ± 650 µM and the “self-cleavage kobs at 640 uM GlcN6P” value [3] was 2.56e-05 ± 1.1e-05 s⁻¹. The “self-cleavage kobs at 2500 uM GlcN6P” value [4] was 5.1e-05 ± 1e-05 s⁻¹ and the “self-cleavage kobs at 10000 uM GlcN6P” value [5] was 9.13e-05 ± 1.2e-05 s⁻¹.

For G43A C68G, the kcat [1] was 0.000174 ± 1.4e-05 s⁻¹, the KM [2] was 993 ± 160 µM and the “self-cleavage kobs at 640 uM GlcN6P” value [3] was 6.69e-05 ± 1.2e-05 s⁻¹. For the same variant, the “self-cleavage kobs at 2500 uM GlcN6P” value [4] was 0.000126 ± 2e-05 s⁻¹.

In the case of G40C U65A, the kcat [1] is reported as 0.000379 ± 3.9e-05 s⁻¹, the KM [2] is reported as 1830 ± 350 µM and the “self-cleavage kobs at 160 uM GlcN6P” value [7] is reported as 3.58e-05 ± 1.5e-05 s⁻¹. For the same variant, the “self-cleavage kobs at 640 uM GlcN6P” value [3] was 0.0001 ± 1.9e-05 s⁻¹, the “self-cleavage kobs at 2500 uM GlcN6P” value [4] was 0.000199 ± 3.6e-05 s⁻¹ and the “self-cleavage kobs at 10000 uM GlcN6P” value [5] was 0.000346 ± 6.3e-05 s⁻¹.

G41U C71U was tested, and the kcat [1] was 0.000239 ± 3e-05 s⁻¹, the KM [2] was 885 ± 270 µM and the “self-cleavage kobs at 40 uM GlcN6P” value [6] was 1.98e-05 ± 8.9e-06 s⁻¹. For the same variant, the “self-cleavage kobs at 160 uM GlcN6P” value [7] was 4.38e-05 ± 8.4e-06 s⁻¹, the “self-cleavage kobs at 640 uM GlcN6P” value [3] was 8.95e-05 ± 9.5e-06 s⁻¹ and the “self-cleavage kobs at 2500 uM GlcN6P” value [4] was 0.000227 ± 2.9e-05 s⁻¹. For the same variant, the “self-cleavage kobs at 10000 uM GlcN6P” value [5] was 0.000214 ± 1.7e-05 s⁻¹.

In the case of G43A U46A, the kcat [1] is reported as 1.87e-05 ± 2.1e-06 s⁻¹ and the “self-cleavage kobs at 40 uM GlcN6P” value [6] is reported as less than 1e-05 s⁻¹.

G44U U54G was tested, and the kcat [1] was 0.000306 ± 2.6e-05 s⁻¹, the KM [2] was 986 ± 200 µM and the “self-cleavage kobs at 640 uM GlcN6P” value [3] was 0.000127 ± 2.2e-05 s⁻¹. The “self-cleavage kobs at 2500 uM GlcN6P” value [4] was 0.000226 ± 4.8e-05 s⁻¹ and the “self-cleavage kobs at 10000 uM GlcN6P” value [5] was 0.00027 ± 5.1e-05 s⁻¹.

In the case of G44C C67G, the kcat [1] is reported as 0.0216 ± 0.0034 s⁻¹, the KM [2] is reported as 3930 ± 790 µM and the “self-cleavage kobs at 40 uM GlcN6P” value [6] is reported as 0.000211 ± 4.8e-05 s⁻¹. The “self-cleavage kobs at 160 uM GlcN6P” value [7] was 0.000995 ± 0.00033 s⁻¹, the “self-cleavage kobs at 640 uM GlcN6P” value [3] was 0.00316 ± 0.00083 s⁻¹ and the “self-cleavage kobs at 2500 uM GlcN6P” value [4] was 0.00752 ± 0.0019 s⁻¹. The “self-cleavage kobs at 10000 uM GlcN6P” value [5] was 0.0168 ± 0.0047 s⁻¹.

In the case of G41C U65A, the kcat [1] is reported as 7.02e-05 ± 4.5e-06 s⁻¹, the KM [2] is reported as 1620 ± 350 µM and the “self-cleavage kobs at 40 uM GlcN6P” value [6] is reported as less than 1e-05 s⁻¹. The “self-cleavage kobs at 2500 uM GlcN6P” value [4] was 4.49e-05 ± 1e-05 s⁻¹ and the “self-cleavage kobs at 10000 uM GlcN6P” value [5] was 5.94e-05 ± 1.1e-05 s⁻¹.

G40U U65G G66U was tested, and the kcat [1] was 3.4e-05 ± 4.8e-06 s⁻¹, the “self-cleavage kobs at 40 uM GlcN6P” value [6] was less than 1e-05 s⁻¹ and the “self-cleavage kobs at 10000 uM GlcN6P” value [5] was 3.38e-05 ± 1.5e-05 s⁻¹.

With A42G U69G the kcat [1] was 0.000182 ± 2.9e-05 s⁻¹, the “self-cleavage kobs at 40 uM GlcN6P” value [6] was 5.35e-05 ± 2.1e-05 s⁻¹ and the “self-cleavage kobs at 640 uM GlcN6P” value [3] was 0.000119 ± 4.1e-05 s⁻¹. The “self-cleavage kobs at 10000 uM GlcN6P” value [5] was 0.000202 ± 4.3e-05 s⁻¹.

In the case of G41C U46C, the kcat [1] is reported as 3.31e-05 ± 3.8e-06 s⁻¹, the KM [2] is reported as 2440 ± 1200 µM and the “self-cleavage kobs at 40 uM GlcN6P” value [6] is reported as less than 1e-05 s⁻¹. The “self-cleavage kobs at 160 uM GlcN6P” value [7] was less than 1e-05 s⁻¹ and the “self-cleavage kobs at 10000 uM GlcN6P” value [5] was 2.65e-05 ± 9.7e-06 s⁻¹.

A42U G66U was tested, and the kcat [1] was 6.96e-05 ± 7.8e-06 s⁻¹, the KM [2] was 1930 ± 830 µM and the “self-cleavage kobs at 40 uM GlcN6P” value [6] was less than 1e-05 s⁻¹. For the same variant, the “self-cleavage kobs at 2500 uM GlcN6P” value [4] was 4.29e-05 ± 9.1e-06 s⁻¹ and the “self-cleavage kobs at 10000 uM GlcN6P” value [5] was 5.76e-05 ± 6.8e-06 s⁻¹.

For G43A C67A, the kcat [1] was 0.00175 ± 0.00022 s⁻¹, the KM [2] was 976 ± 200 µM and the “self-cleavage kobs at 40 uM GlcN6P” value [6] was 7.15e-05 ± 1.3e-05 s⁻¹. For the same variant, the “self-cleavage kobs at 160 uM GlcN6P” value [7] was 0.000242 ± 6.6e-05 s⁻¹, the “self-cleavage kobs at 640 uM GlcN6P” value [3] was 0.000611 ± 0.00013 s⁻¹ and the “self-cleavage kobs at 2500 uM GlcN6P” value [4] was 0.00156 ± 0.00025 s⁻¹. The “self-cleavage kobs at 10000 uM GlcN6P” value [5] was 0.00147 ± 0.00026 s⁻¹.
